What was measured:
[1] = biological target: His-tagged FIV recombinant p24 capsid protein (Feline Immunodeficiency Virus, Petaluma strain) (Feline immunodeficiency virus (Petaluma strain)) (UniProt P16087); assay: dynamic light scattering; p24-His at 7 mg/ml, 50 mM sodium phosphate pH 7.4, 23°C; mean diameter 6.8 nm, single peak; monomer to dimer
[2] = biological target: His-tagged FIV recombinant p24 capsid protein (Feline Immunodeficiency Virus, Petaluma strain) (Feline immunodeficiency virus (Petaluma strain)) (UniProt P16087); assay: cross-linking; p24 at 7 mg/ml with BS3 (20:1 w/w BS3:p24), 30 min at room temperature, SDS-PAGE; dimer seen with and not without BS3; no higher molecular weight species
[3] = biological target: His-tagged FIV recombinant p24 capsid protein (Feline Immunodeficiency Virus, Petaluma strain) (Feline immunodeficiency virus (Petaluma strain)) (UniProt P16087); assay: ITC; dilution ITC: p24 at 7 mg/ml (243 µM) injected into buffer alone, 50 mM sodium phosphate pH 7.4, 30°C; dimer dissociation model; dimer to monomers

His-tagged FIV recombinant p24 capsid protein (Feline Immunodeficiency Virus, Petaluma strain) (from UniProt P16087 136-357) (natural protein)
stoichiometry N [1]: 2
stoichiometry N [2]: 2
Kd [3]: 20 µM
